# Test results as given in patent US20080227128.
# Tests used:
# [1] = test system: T1, KPLGSDDSLADY peptide
# T1 sequence: KPLGSDDSLADY
# [2] = test system: T2, MEK substrate (MEKSBS)
# T2 sequence: XDPDHDHTGFLTEYVATRW
substance,measurement,setting,value
purified MEK,phosphorylation in an in vitro kinase assay,[1],are both phosphorylated in the presence of purified MEK in an in vitro kinase assay
same,phosphorylation in an in vitro kinase assay,[2],are both phosphorylated in the presence of purified MEK in an in vitro kinase assay
